From patent publication US20120263701

T1: soluble tissue factor, P13726
T1 chain: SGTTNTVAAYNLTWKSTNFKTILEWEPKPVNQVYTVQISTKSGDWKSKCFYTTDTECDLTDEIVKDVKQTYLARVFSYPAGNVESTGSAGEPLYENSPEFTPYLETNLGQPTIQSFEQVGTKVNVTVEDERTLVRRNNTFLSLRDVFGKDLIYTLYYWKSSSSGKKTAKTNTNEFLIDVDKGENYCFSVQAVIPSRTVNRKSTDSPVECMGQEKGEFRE


How the values were obtained:
[1] = target: T1, soluble tissue factor, P13726

Row | Molecule | Concentration by Activity (ng/ml), aPTT based factor assay (FIX/cFXI2/XTEN (pCW0736)) [ng/mL] | Fraction Active (activity / ELISA) (FIX/cFXI2/XTEN (pCW0736)) [%] | clotting activity against FIX-XTEN without cleavage site (aPTT based factor assay) (FIX/cFXI2/XTEN (pCW0736)) | Concentration by Activity (ng/ml), aPTT based factor assay (FIX/cFXI3/XTEN (pCW0737)) [ng/mL] | Fraction Active (activity / ELISA) (FIX/cFXI3/XTEN (pCW0737)) [%] | clotting activity against FIX-XTEN without cleavage site (aPTT based factor assay) (FIX/cFXI3/XTEN (pCW0737)) | Concentration by Activity (ng/ml), aPTT based factor assay (FIX/cFXI1/XTEN (pCW0735)) [ng/mL] | Fraction Active (activity / ELISA) (FIX/cFXI1/XTEN (pCW0735)) [%] | clotting activity against FIX-XTEN without cleavage site (aPTT based factor assay) (FIX/cFXI1/XTEN (pCW0735)) | soluble tissue factor (sTF) induced clotting (Stago STA-Clot FVIIa activity assay) [1]
1 | FXI protease | 9 | 34 | enhanced the clotting activity by greater than 30-fold | 11 | 40 | enhanced the clotting activity by greater than 30-fold | 7 | 30 | enhanced the clotting activity by greater than 30-fold | 
2 | FVIIa-AE288 (protein) chain 1: ANAFLEELRPGSLERECKEEQCSFEEAREIFKDAERTKLFWISYSDGDQCASSPCQNGGSCKDQLQSYICFCLPAFEGRNCETHKDDQLICVNENGGCEQYCSDHTGTKRSCRCHEGYSLLADGVSCTPTVEYPCGKIPILEKRNASKPQGR chain 2: IVGGKVCPKGECPWQVLLLVNGAQLCGGTLINTIWVVSAAHCFDKIKNWRNLIAVLGEHDLSEHDGDEQSRRVAQVIIPSTYVPGTTNHDIALLRLHQPVVLTDHVVPLCLPERTFSERTLAFVRFSLVSGWGQLLDRGATALELMVLNVPRLMTQDCLQQSRKVGDSPNITEYMFCAGYSDGSKDSCKGDSGGPHATHYRGTWYLTGIVSWGQGCATVGHFGVYTRVSQYIEWLQKLMRSEPRPGVLLRAPFPGSPGTSESATPESGPGSEPATSGSETPGTSESATPESGPGSEPATSGSETPGTSESATPESGPGTSTEPSEGSAPGSPAGSPTSTEEGTSESATPESGPGSEPATSGSETPGTSESATPESGPGSPAGSPTSTEEGSPAGSPTSTEEGTSTEPSEGSAPGTSESATPESGPGTSESATPESGPGTSESATPESGPGSEPATSGSETPGSEPATSGSETPGSPAGSPTSTEEGTSTEPSEGSAPGTSTEPSEGSAPGSEPATSGSETPGTSESATPESGPGTSTEPSEGSAPGSSS |  |  |  |  |  |  |  |  |  | an activity equivalent to 112 U/ml of FVIIa activity
